Test results as given in publication PMC420458 (BMC Cell Biology, 2004).

T1: GST-HEF1 (human, UniProt Q14511 1-834)
T1 sequence: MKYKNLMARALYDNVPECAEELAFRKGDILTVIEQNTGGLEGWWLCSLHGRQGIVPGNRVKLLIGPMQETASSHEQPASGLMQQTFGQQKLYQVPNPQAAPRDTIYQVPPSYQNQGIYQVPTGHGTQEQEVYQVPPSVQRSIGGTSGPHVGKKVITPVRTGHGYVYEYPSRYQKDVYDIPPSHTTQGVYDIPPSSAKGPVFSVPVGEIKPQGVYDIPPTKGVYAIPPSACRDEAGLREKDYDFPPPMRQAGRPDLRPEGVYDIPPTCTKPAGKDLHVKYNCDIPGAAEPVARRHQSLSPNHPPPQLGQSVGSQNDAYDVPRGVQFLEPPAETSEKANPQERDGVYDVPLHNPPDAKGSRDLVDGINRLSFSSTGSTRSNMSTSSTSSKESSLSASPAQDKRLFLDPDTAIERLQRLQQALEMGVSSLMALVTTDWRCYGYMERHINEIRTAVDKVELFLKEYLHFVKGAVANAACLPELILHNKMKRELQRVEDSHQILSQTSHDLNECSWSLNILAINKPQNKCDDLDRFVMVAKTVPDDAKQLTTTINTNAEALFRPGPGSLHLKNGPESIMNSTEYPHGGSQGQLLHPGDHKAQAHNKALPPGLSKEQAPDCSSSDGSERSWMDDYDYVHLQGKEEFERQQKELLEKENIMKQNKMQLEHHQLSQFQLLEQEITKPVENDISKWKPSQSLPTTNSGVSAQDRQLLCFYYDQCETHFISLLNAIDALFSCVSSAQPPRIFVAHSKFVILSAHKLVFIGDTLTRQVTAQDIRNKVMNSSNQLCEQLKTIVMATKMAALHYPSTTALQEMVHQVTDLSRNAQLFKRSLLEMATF


Key:
GST-APC10 = GST-APC10 (UniProt Q9UM13 1-185); test: pull-down
GST-APC10, sequence (Q9UM13 whole entry): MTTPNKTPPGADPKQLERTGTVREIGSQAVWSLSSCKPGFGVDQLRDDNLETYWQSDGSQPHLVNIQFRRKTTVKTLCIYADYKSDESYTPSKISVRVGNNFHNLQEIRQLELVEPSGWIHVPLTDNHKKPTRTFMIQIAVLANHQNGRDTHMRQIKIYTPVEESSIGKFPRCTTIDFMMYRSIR

GST-HEF1 = molecular target: T1, GST-HEF1; test: pull-down

Binder | percent of input protein bound (densitometry) (GST-APC10) [%] | percent of input protein bound (densitometry) (GST-HEF1) [%]
Flag-tagged Smad3 d2 (domain or fragment) MSSILPFTPPIVKRLLGWKKGEQNGQEEKWCEKAVKSLVKKLKKTGQLDELEKAITTQNVNTKCITIPRSLDGRLQVSHRKGLPHVIYCRLWRWPDLHSHHELRAMELCEFAFNMKKDEVCVNPYHYQRVETPVLPPVLVPRHTEIPAEFPPLDDYSHSIPENTNFPAGIEPQSNIPETPPPGYLSEDGETSDHQMNHSMDAGSPNLSPNPMSPAHNNLDLQPVTYCEPAFWCSISYYELNQRVGETFHASQPSMTVDGFTDPSNSERFCLGLLSNVNRNAAVELTRRHIGRGVRLYYIGGEVFAECLSDSAIFVQSPNCNQRYGWHPATVCKIPPGCNLKIFNNQEFAALLAQSVNQGFE | 95 | 21
Flag-tagged Smad3 d6 (domain or fragment) MSSILPFTPPIVKRLLGWKKGEQNGQEEKWCEKAVKSLVKKLKKTGQLDELEKAITTQNVNTKCITIPRSLDGRLQVSHRKGLPHVIYCRLWRWPDLHSHHELRAMELCEFAFNMKKDEVCVNPYHYQRVETPVLPPVLVPRHTEIPAEFPPLDDYSHSIPENTNFPAGIEPQSNIPETPPPGYLSEDGETSDHQMNHSMDAGSPNLSPNPMSPAHNNLDLQPVTYCEPAFWCSISYYELNQRVGETFHASQPSMTVDGFTDPSNSERFCLGLLSNVNRNAAVELTRRHIGRGVRLYYIGGEVFAECLSDSAIFVQSPNCNQRYGWHPA | 34 | 23
Flag-tagged Smad3 d4 (domain or fragment) MSSILPFTPPIVKRLLGWKKGEQNGQEEKWCEKAVKSLVKKLKKTGQLDELEKAITTQNVNTKCITIPRSLDGRLQVSHRKGLPHVIYCRLWRWPDLHSHHELRAMELCEFAFNMKKDEVCVNPYHYQRVETPVLPPVLVPRHTEIPAEFPPLDDYSHSIPENTNFPAGIEPQSNIPETPPPGYLSEDGETSDHQMNHSMDAGSPNLSPNPMSPAHNNLDLQPVTYCEPAFWCSISYYELNQRVGETFHASQPSMTVDGFTDPSNSERFCLGLLSNVNRNAAVELTRRHIGRGVRLYYIG | 17 | 13
Smad3/Smad1/Smad3 chimera (other) MSSILPFTPPIVKRLLGWKKGEQNGQEEKWCEKAVKSLVKKLKKTGQLDELEKAITTQNVNTKCITIPRSLDGRLQVSHRKGLPHVIYCRLWRWPDLHSHHELRAMELCEFAFNMKKDEVCVNPYHYQRVETPVLPPVLVPRHTEIPAEFPPLDDYSHSIPENTNFPAGIEPQSNIPETPPPGYLSEDGETSDHQMNHSMDAGSPNLSPNPMSPAHNNLDLQPVTYCEPAFWCSISYYELNNRVGEAFHASSTSVLVDGFTDPSNNKNRFCLGLLSNVVNRNAAVELTRRHIGRGVRLYYIGGEVFAECLSDSAIFVQSPNCNQRYGWHPATVCKIPPGCNLKIFNNQEFAALLAQSVNQGFEAVYQLTRMCTIRMSFVKGWGAEYRRQTVTSTPCWIELHLNGPLQWLDKVLTQMGSPSIRCSSV | 20 | 24
